The supplement of paper PMC9116672
± gives the standard deviation of the averaged measurements or the uncertainty stated by the source.

Assays:
[1] = duplex formation free energy ΔG50 (Van't Hoff fit of HRM Tm); higher = less stable duplex; details: temperature for dG: 50 °C, NaCl: 500 mM (unadjusted)
Method: (§1)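 Duplex of the listed DNA strand with its complement, in 1x NNE buffer (500 mM NaCl, pH 7.0) with 1x EvaGreen. ΔH and ΔS come from a Van't Hoff linear fit of 1/Tm against ln(CT/4) over 1-20 uM, using HRM Tm values.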

[2] = duplex melting temperature (HRM, EvaGreen); higher = more stable duplex
Method: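 Listed DNA strand annealed 1:1 with its complementary strand (95 °C 5 min, 0.1 °C/s to 20 °C). Melted in 1x NNE buffer (500 mM NaCl, 10 mM Na2HPO4, 1 mM EDTA, pH 7.0) with 1x EvaGreen on a LightCycler96 (37 to 97 °C, 0.1 °C/s). Tm is the peak of -dF/dT at the stated total duplex concentration; 4 replicates are averaged. PS oligos are non-stereospecific (Rp/Sp mixtures).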

[3] = duplex formation enthalpy ΔH (Van't Hoff fit of HRM Tm); higher = less exothermic duplex formation; details: temperature for dG: 50 °C, NaCl: 500 mM (unadjusted)
Method: as §1

[4] = duplex formation entropy ΔS (Van't Hoff fit of HRM Tm); higher = smaller entropy loss on duplex formation; details: temperature for dG: 50 °C, NaCl: 500 mM (unadjusted)
Method: as §1

[5] = backbone: PO-PO (both strands phosphodiester DNA)
[6] = backbone: PS-PO (listed strand fully phosphorothioate, complement phosphodiester)
[7] = backbone: PS-PS (both strands fully phosphorothioate)
[8] = duplex concentration 1 µM, backbone: PO-PO (both strands phosphodiester DNA)
[9] = duplex concentration 1 µM, backbone: PS-PO (listed strand fully phosphorothioate, complement phosphodiester)
[10] = duplex concentration 1 µM, backbone: PS-PS (both strands fully phosphorothioate)
[11] = duplex concentration 2.5 µM, backbone: PO-PO (both strands phosphodiester DNA)
[12] = duplex concentration 2.5 µM, backbone: PS-PO (listed strand fully phosphorothioate, complement phosphodiester)
[13] = duplex concentration 2.5 µM, backbone: PS-PS (both strands fully phosphorothioate)
[14] = duplex concentration 5 µM, backbone: PO-PO (both strands phosphodiester DNA)
[15] = duplex concentration 5 µM, backbone: PS-PO (listed strand fully phosphorothioate, complement phosphodiester)
[16] = duplex concentration 5 µM, backbone: PS-PS (both strands fully phosphorothioate)
[17] = duplex concentration 7.5 µM, backbone: PO-PO (both strands phosphodiester DNA)
[18] = duplex concentration 7.5 µM, backbone: PS-PO (listed strand fully phosphorothioate, complement phosphodiester)
[19] = duplex concentration 7.5 µM, backbone: PS-PS (both strands fully phosphorothioate)
[20] = duplex concentration 10 µM, backbone: PO-PO (both strands phosphodiester DNA)
[21] = duplex concentration 10 µM, backbone: PS-PO (listed strand fully phosphorothioate, complement phosphodiester)
[22] = duplex concentration 10 µM, backbone: PS-PS (both strands fully phosphorothioate)
[23] = duplex concentration 15 µM, backbone: PO-PO (both strands phosphodiester DNA)
[24] = duplex concentration 15 µM, backbone: PS-PO (listed strand fully phosphorothioate, complement phosphodiester)
[25] = duplex concentration 15 µM, backbone: PS-PS (both strands fully phosphorothioate)
[26] = duplex concentration 20 µM, backbone: PO-PO (both strands phosphodiester DNA)
[27] = duplex concentration 20 µM, backbone: PS-PO (listed strand fully phosphorothioate, complement phosphodiester)
[28] = duplex concentration 20 µM, backbone: PS-PS (both strands fully phosphorothioate)

For TAATTATACGAGTAGTTTCTGTCCTG, the “duplex formation free energy ΔG50” value [1, 5] was -17.6 ± 0.68 kcal/mol, the “duplex formation free energy ΔG50” value [1, 6] was -13.9 ± 0.21 kcal/mol and the “duplex formation free energy ΔG50” value [1, 7] was -10.75 ± 0.039 kcal/mol. It also gave a duplex melting temperature [2, 8] of 71.48 ± 0.47 °C, a duplex melting temperature [2, 9] of 62.1 ± 1.3 °C and a duplex melting temperature [2, 10] of 53.5 ± 0.9 °C. The duplex melting temperature [2, 11] was 72.48 ± 0.47 °C, the duplex melting temperature [2, 12] was 63.7 ± 0.66 °C and the duplex melting temperature [2, 13] was 55.8 ± 0.57 °C. It also gave a duplex melting temperature [2, 14] of 73.57 ± 0.43 °C, a duplex melting temperature [2, 15] of 65.23 ± 0.59 °C and a duplex melting temperature [2, 16] of 57.27 ± 0.51 °C. The duplex melting temperature [2, 17] was 74.63 ± 0.29 °C, the duplex melting temperature [2, 18] was 65.94 ± 0.5 °C and the duplex melting temperature [2, 19] was 58.41 ± 0.21 °C. It also gave a duplex melting temperature [2, 20] of 75.37 ± 0.084 °C, a duplex melting temperature [2, 21] of 66.63 ± 0.26 °C and a duplex melting temperature [2, 22] of 59.23 ± 0.13 °C. For the same sequence, the duplex melting temperature [2, 23] was 76.277 ± 0.049 °C, the duplex melting temperature [2, 24] was 67.43 ± 0.14 °C and the duplex melting temperature [2, 25] was 60.07 ± 0.12 °C. For the same sequence, the duplex melting temperature [2, 26] was 77.05 ± 0.094 °C, the duplex melting temperature [2, 27] was 67.855 ± 0.049 °C and the duplex melting temperature [2, 28] was 60.84 ± 0.17 °C. The “duplex formation enthalpy ΔH” value [3, 5] was -127 ± 9.7 kcal/mol, the “duplex formation enthalpy ΔH” value [3, 6] was -115 ± 4.5 kcal/mol and the “duplex formation enthalpy ΔH” value [3, 7] was -89.9 ± 1.6 kcal/mol. The “duplex formation entropy ΔS” value [4, 5] was -340 ± 28 cal/mol/K, the “duplex formation entropy ΔS” value [4, 6] was -312 ± 13 cal/mol/K and the “duplex formation entropy ΔS” value [4, 7] was -245 ± 4.8 cal/mol/K.
For CAAACTTAGTAATCACGCCCAGCAACCA, the “duplex formation free energy ΔG50” value [1, 5] was -21 ± 0.74 kcal/mol, the “duplex formation free energy ΔG50” value [1, 6] was -19 ± 0.52 kcal/mol and the “duplex formation free energy ΔG50” value [1, 7] was -13.9 ± 0.17 kcal/mol. It also gave a duplex melting temperature [2, 8] of 78.3 ± 0.4 °C, a duplex melting temperature [2, 9] of 71.41 ± 0.5 °C and a duplex melting temperature [2, 10] of 62.3 ± 0.89 °C. For the same sequence, the duplex melting temperature [2, 11] was 79.54 ± 0.39 °C, the duplex melting temperature [2, 12] was 72.56 ± 0.53 °C and the duplex melting temperature [2, 13] was 64.34 ± 0.43 °C. It also gave a duplex melting temperature [2, 14] of 80.55 ± 0.61 °C, a duplex melting temperature [2, 15] of 73.83 ± 0.46 °C and a duplex melting temperature [2, 16] of 65.81 ± 0.35 °C. It also gave a duplex melting temperature [2, 17] of 81.42 ± 0.21 °C, a duplex melting temperature [2, 18] of 74.22 ± 0.47 °C and a duplex melting temperature [2, 19] of 66.74 ± 0.11 °C. For the same sequence, the duplex melting temperature [2, 20] was 82.09 ± 0.11 °C, the duplex melting temperature [2, 21] was 74.81 ± 0.22 °C and the duplex melting temperature [2, 22] was 67.319 ± 0.064 °C. It also gave a duplex melting temperature [2, 23] of 82.922 ± 0.079 °C, a duplex melting temperature [2, 24] of 75.66 ± 0.16 °C and a duplex melting temperature [2, 25] of 67.904 ± 0.048 °C. For the same sequence, the duplex melting temperature [2, 26] was 83.591 ± 0.062 °C, the duplex melting temperature [2, 27] was 76.275 ± 0.049 °C and the duplex melting temperature [2, 28] was 68.51 ± 0.1 °C. For the same sequence, the “duplex formation enthalpy ΔH” value [3, 5] was -141 ± 8.4 kcal/mol, the “duplex formation enthalpy ΔH” value [3, 6] was -149 ± 7.5 kcal/mol and the “duplex formation enthalpy ΔH” value [3, 7] was -112 ± 3.5 kcal/mol. For the same sequence, the “duplex formation entropy ΔS” value [4, 5] was -372 ± 24 cal/mol/K, the “duplex formation entropy ΔS” value [4, 6] was -404 ± 22 cal/mol/K and the “duplex formation entropy ΔS” value [4, 7] was -303 ± 10 cal/mol/K.
In the case of CTTTTGTGCGGGTAGC, the “duplex formation free energy ΔG50” value [1, 5] is reported as -12.5 ± 0.21 kcal/mol, the “duplex formation free energy ΔG50” value [1, 6] is reported as -11.07 ± 0.095 kcal/mol and the “duplex formation free energy ΔG50” value [1, 7] is reported as -9.593 ± 0.049 kcal/mol. The duplex melting temperature [2, 8] was 63.84 ± 0.57 °C, the duplex melting temperature [2, 9] was 56.1 °C and the duplex melting temperature [2, 10] was 48.71 ± 0.41 °C. It also gave a duplex melting temperature [2, 11] of 65.75 ± 0.34 °C, a duplex melting temperature [2, 12] of 59.24 ± 0.32 °C and a duplex melting temperature [2, 13] of 52.48 ± 0.25 °C. The duplex melting temperature [2, 14] was 68.14 ± 0.14 °C, the duplex melting temperature [2, 15] was 61.53 ± 0.35 °C and the duplex melting temperature [2, 16] was 55.08 ± 0.22 °C. The duplex melting temperature [2, 17] was 69.35 ± 0.31 °C, the duplex melting temperature [2, 18] was 62.94 ± 0.29 °C and the duplex melting temperature [2, 19] was 56.37 ± 0.13 °C. The duplex melting temperature [2, 20] was 70.49 ± 0.15 °C, the duplex melting temperature [2, 21] was 63.93 ± 0.083 °C and the duplex melting temperature [2, 22] was 57.22 ± 0.12 °C. It also gave a duplex melting temperature [2, 23] of 71.94 ± 0.13 °C, a duplex melting temperature [2, 24] of 65.13 ± 0.068 °C and a duplex melting temperature [2, 25] of 58.45 ± 0.21 °C. It also gave a duplex melting temperature [2, 26] of 73.2 ± 0.36 °C, a duplex melting temperature [2, 27] of 65.98 ± 0.35 °C and a duplex melting temperature [2, 28] of 59.6 ± 0.74 °C. For the same sequence, the “duplex formation enthalpy ΔH” value [3, 5] was -70.2 ± 3.7 kcal/mol, the “duplex formation enthalpy ΔH” value [3, 6] was -67.9 ± 2.4 kcal/mol and the “duplex formation enthalpy ΔH” value [3, 7] was -60 ± 2.5 kcal/mol. The “duplex formation entropy ΔS” value [4, 5] was -179 ± 11 cal/mol/K, the “duplex formation entropy ΔS” value [4, 6] was -176 ± 7.2 cal/mol/K and the “duplex formation entropy ΔS” value [4, 7] was -156 ± 7.6 cal/mol/K.
For ACATGACTCATCTTAGCCGGCGAG, the “duplex formation free energy ΔG50” value [1, 5] was -19.9 ± 0.5 kcal/mol, the “duplex formation free energy ΔG50” value [1, 6] was -17.8 ± 0.41 kcal/mol and the “duplex formation free energy ΔG50” value [1, 7] was -14.53 ± 0.14 kcal/mol. It also gave a duplex melting temperature [2, 8] of 77.5 ± 1.1 °C, a duplex melting temperature [2, 9] of 71.03 ± 0.65 °C and a duplex melting temperature [2, 10] of 63.8 ± 0.81 °C. The duplex melting temperature [2, 11] was 79.47 ± 0.48 °C, the duplex melting temperature [2, 12] was 72.33 ± 0.54 °C and the duplex melting temperature [2, 13] was 65.78 ± 0.62 °C. It also gave a duplex melting temperature [2, 14] of 80.58 ± 0.42 °C, a duplex melting temperature [2, 15] of 73.6 ± 0.59 °C and a duplex melting temperature [2, 16] of 67.03 ± 0.46 °C. For the same sequence, the duplex melting temperature [2, 17] was 81.54 ± 0.25 °C, the duplex melting temperature [2, 18] was 74.24 ± 0.52 °C and the duplex melting temperature [2, 19] was 68.06 ± 0.18 °C. The duplex melting temperature [2, 20] was 82.18 ± 0.17 °C, the duplex melting temperature [2, 21] was 75.03 ± 0.16 °C and the duplex melting temperature [2, 22] was 68.59 ± 0.11 °C. For the same sequence, the duplex melting temperature [2, 23] was 82.95 ± 0.13 °C, the duplex melting temperature [2, 24] was 75.79 ± 0.14 °C and the duplex melting temperature [2, 25] was 69.29 ± 0.1 °C. The duplex melting temperature [2, 26] was 83.69 ± 0.2 °C, the duplex melting temperature [2, 27] was 76.42 ± 0.052 °C and the duplex melting temperature [2, 28] was 69.97 ± 0.13 °C. The “duplex formation enthalpy ΔH” value [3, 5] was -128 ± 5.6 kcal/mol, the “duplex formation enthalpy ΔH” value [3, 6] was -133 ± 5.9 kcal/mol and the “duplex formation enthalpy ΔH” value [3, 7] was -115 ± 2.6 kcal/mol. For the same sequence, the “duplex formation entropy ΔS” value [4, 5] was -336 ± 16 cal/mol/K, the “duplex formation entropy ΔS” value [4, 6] was -356 ± 17 cal/mol/K and the “duplex formation entropy ΔS” value [4, 7] was -311 ± 7.6 cal/mol/K.
